Target: FGF receptors
Test: cell-based or functional assay

In the case of “bFGF-SAP fusion protein (FGF-Ala-Met-SAP), wild type”, the ID50, cytotoxicity on SK-Mel-28 cells (72 h, MTT) is reported as 0.6 nM, the ID50, inhibition of proliferation of serum stimulated rabbit keratocytes (3 h) is reported as 1 to 10 nM and the ID50, inhibition of rabbit keratocyte proliferation (48 h) is reported as 200 pM.

Work on “wild type bFGF-SAP chemical conjugate (heterogeneous FGF-SAP) (from UniProt P20656 25-277)” yielded an ED50, cytotoxicity on SK-MEL-28 cells of 8 ng/mL, an ID50, cytotoxicity on SK-Mel-28 cells (72 h, MTT) of 0.3 nM and an ID50, inhibition of proliferation of serum stimulated rabbit keratocytes (3 h) of 1 to 10 nM. It also gave an ID50, inhibition of rabbit keratocyte proliferation (48 h) of 100 pM.

From patent publication EP1188448A2
